Test results as given in patent publication US20210032312A1 (Janssen / Centocor, published 2021).

B1: P283GR7P1367_G8 (designed binder)
chain: LPAPKNLVVSRVTEDSARLSWTAPDAAFDSFYIAYPEYVWGGEATSLGEAIVLTVPGSERSYDLTGLKPGTEYFVVITGVKGGLGSYPLSAIFTT
notes: FN3 domain
B2: P283FR9P1366_F8 (designed binder)
chain: LPAPKNLVVSRVTEDSARLSWTAPDAAFDSFAIAYPEIAKWGEAIVLTVPGSERSYDLTGLKPGTEYFVIIYGVKGGVHSFPLSAIFTT
notes: FN3 domain
B3: P283FR9P1366_G1 (designed binder)
chain: LPAPKNLVVSRVTEDSARLSWTAPDAAFDSFYISYPELPVEGEAIVLTVPGSERSYDLTGLKPGTEYWVIIWGVKGGATSEPLSAIFTT
notes: FN3 domain
B4: P283GR7P1367_H2 (designed binder)
chain: LPAPKNLVVSRVTEDSARLSWTAPDAAFDSFDIAYPEWPTDGEAIVLTVPGSERSYDLTGLKPGTEYFVVIYGVKGGGRSYPLSAIFTT
notes: FN3 domain
B5: P283GR7P1367_F5 (designed binder)
chain: LPAPKNLVVSRVTEDSARLSWTAPDAAFDSFDIAYPEWPTDGEAIVLTVPGSERSYDLTGLKPGTEYFVIIYGVKGGALSRPLSAIFTT
notes: FN3 domain
B6: P283FR9P1366_F9 (designed binder)
chain: LPAPKNLVVSRVTEDSARLSWTAPDAAFDSFHIFYPELPIAGEAIVLTVPGSERSYDLTGLKPGTEYWVNISGVKGGYESWPLSAIFTT
notes: FN3 domain
B7: P283FR9P1366_G5 (designed binder)
chain: LPAPKNLVVSRVTEDSARLSWTAPDAAFDSFQIAYPEYPALGEAIVLTVPGSERSYDLTGLKPGTEYFVIIIGVKGGDESFPLSAIFTT
notes: FN3 domain
B8: P283FR9P1366_H3 (designed binder)
chain: LPAPKNLVVSRVTEDSARLSWTAPDAAFDSFAIAYPEWPIKGEAIVLTVPGSERSYDLTGLKPGTEYWVVIYGVKGGVFSEPLSAIFTT
notes: FN3 domain
B9: P283GR7P1367_C9 (designed binder)
chain: LPAPKNLVVSRVTEDSARLSWTAPDAAFDSFLIGYPEWPLGGEAIVLTVPGSERSYDLTGLKPGTEYWVIIYGVKGGEYSDPLSAIFTT
notes: FN3 domain
B10: P283GR7P1367_A11 (designed binder)
chain: LPAPKNLVVSRVTEDSARLSWTAPDAAFDSFDIAYPEWPTDGEAIVLTVPGSERSYDLTGLKPGTEYFVIIYGVKGGSYSEPLSAIFTT
notes: FN3 domain
B11: P283FR9P1366_H7 (designed binder)
chain: LPAPKNLVVSRVTEDSARLSWTAPDAAFDSFQIAYPEYPALGEAIVLTVPGSERSYDLTGLKPGTEYFVIIAGVKGGIQSWPLSAIFTT
notes: FN3 domain
B12: P283GR7P1367_B7 (designed binder)
chain: LPAPKNLVVSRVTEDSARLSWTAPDAAFDSFDIAYPEWPTDGEAIVLTVPGSERSYDLTGLKPGTEYFVVIYGVKGGHWSYPLSAIFTT
notes: FN3 domain
B13: P283FR9P1366_H9 (designed binder)
chain: LPAPKNLVVSRVTEDSARLSWTAPDAAFDSFEIAYPEWPVNGEAIVLTVPGSERSYDLTGLKPGTEYWVVIWGVKGGVNSYPLSAIFTT
notes: FN3 domain
B14: P283FR9P1366_H10 (designed binder)
chain: LPAPKNLVVSRVTEDSARLSWTAPDAAFDSFNIAYPEWPPEGEAIVLTVPGSERSYDLTGLKPGTEYFVVIYGVKGGHLSDPLSAIFTT
notes: FN3 domain
B15: P283GR7P1367_H9 (designed binder)
chain: LPAPKNLVVSRVTEDSARLSWTAPDAAFDSFDIAYPEWPTDGEAIVLTVPGSERSYDLTGLKPGTEYFVVIYGVKGGGRSAPLSAIFTT
notes: FN3 domain
B16: P283FR9P1366_G8 (designed binder)
chain: LPAPKNLVVSRVTEDSARLSWTAPDAAFDSFDIAYPELPIGGEAIVLTVPGSERSYDLTGLKPGTEYFVVIYGVKGGIHSAPLSAIFTT
notes: FN3 domain
B17: P283FR9P1366_H8 (designed binder)
chain: LPAPKNLVVSRVTEDSARLSWTAPDAAFDSFYISYPEWPGSGEAIVLTVPGSERSYDLTGLKPGTEYAVFIWCVKGGWLSDPLSAIFTT
notes: FN3 domain
B18: P283FR9P1366_H6 (designed binder)
chain: LPAPKNLVVSRVTEDSARLSWTAPDAAFDSFDIAYPEWPVTGEAIVLTVPGSERSYDLTGLKPGTEYWVIIFGVKGGERSWPLSAIFTT
notes: FN3 domain
B19: P283GR7P1367_H8 (designed binder)
chain: LPAPKNLVVSRVTEDSARLSWTAPDAAFDSFSINYWEEDPAGEAIVLTVPGSERSYDLTGLKPGTEYRVLIGGVKGGHGSLPLSAIFTT
notes: FN3 domain
B20: P283FR9P1366_H5 (designed binder)
chain: LPAPKNLVVSRVTEDSARLSWTAPDAAFDSFIYIENKVNGEAIVLTVPGSERSYDLTGLKPGTEYHVTIGGVKGGTESNTLSAIFTT
notes: FN3 domain
B21: P283GR7P1367_B4 (designed binder)
chain: LPAPKNLVVSRVTEDSARLSWTAPDAAFDSFSILYYELPPSGEAIVLTVPGSERSYDLTGLKPGTEYTVSIFGVKGGDNSFPLSAIFTT
notes: FN3 domain
B22: P283GR7P1367_B9 (designed binder)
chain: LPAPKNLVVSRVTEDSARLSWTAPDAAFDSFEIWYHEYHPRGEAIVLTVPSSERSYDLTGLKPGTEYDVVISGVKGGHWSYPLSAIFTT
notes: FN3 domain
B23: P283GR7P1367_E5 (designed binder)
chain: LPAPKNLVVSRVTEDSARLSWTAPDAAFDSFEIWYHEYHPRGEAIVLTVPGSERSYDLTGLKPGTEYDVVISGVKGGHWSYPLSAIFTT
notes: FN3 domain

Assays:
[1] = target: T1, cynomolgus monkey CD8 alpha on primary cynomolgus CD8+ T cells (cynomolgus monkey, UniProt P01732 23-235 (human entry)); assay: flow cytometry, cyno CD8+ T cells
T1 construct: also called Cyno CD8alpha; cyno CD8A
T1 sequence (P01732 other isoform, or with tags, fused parts or gaps limits assumed): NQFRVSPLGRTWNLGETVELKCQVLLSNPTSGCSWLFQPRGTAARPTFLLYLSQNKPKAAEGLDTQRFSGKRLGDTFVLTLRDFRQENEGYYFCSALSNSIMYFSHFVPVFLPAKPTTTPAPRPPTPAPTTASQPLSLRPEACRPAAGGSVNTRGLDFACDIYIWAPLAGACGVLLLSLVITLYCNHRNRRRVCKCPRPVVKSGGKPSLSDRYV
Protocol: (§1) Binding of the 190 ELISA hits to human and cynomologous monkey primary CD8 T cells was assessed by flow cytometry. The FN3 domain molecules were diluted to 2 μM and 0.2 μM in PBS and incubated with human or cynomologous monkey CD8+ T cells in 96-well format. After 1 hour at 4 C, the cells were washed once with PBS and then resuspended with an anti-FN3 domain antibody (PAB25) solution. Following this incubation, the cells were washed twice with PBS and a PE conjugated secondary antibody and a viability dye were added. Finally, cells were washed and resuspended in PBS for flow cytometric analysis using a BD Canto Instrument. Cells were gating on live cells and median fluorescence intensity of the bound Centyrins (PE channel) was calculated using Cytobank software.

[2] = target: T2, human CD8A-Fc (in house) (human, UniProt P01732 22-182, limits assumed); assay: SPR (ProteOn), captured hCD8A-Fc
T2 construct: captured by goat anti-human Fc on the ProteOn chip; also called hCD8A-Fc; recombinant human CD8 alpha; not shown: linker/tag and Fc of human IgG1
T2 sequence (P01732 22-182 limits assumed): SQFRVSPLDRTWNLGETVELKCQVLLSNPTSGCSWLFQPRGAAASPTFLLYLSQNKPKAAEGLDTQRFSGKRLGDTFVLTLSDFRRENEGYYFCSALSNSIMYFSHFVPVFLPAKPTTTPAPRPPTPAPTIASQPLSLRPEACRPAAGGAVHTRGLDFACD

[3] = target: T3, human CD8 alpha (CD8A) on primary human CD8+ T cells (human, UniProt P01732 22-235); assay: flow cytometry, human CD8+ T cells
T3 construct: whole, on cells; also called hCD8A
T3 sequence (P01732 22-235): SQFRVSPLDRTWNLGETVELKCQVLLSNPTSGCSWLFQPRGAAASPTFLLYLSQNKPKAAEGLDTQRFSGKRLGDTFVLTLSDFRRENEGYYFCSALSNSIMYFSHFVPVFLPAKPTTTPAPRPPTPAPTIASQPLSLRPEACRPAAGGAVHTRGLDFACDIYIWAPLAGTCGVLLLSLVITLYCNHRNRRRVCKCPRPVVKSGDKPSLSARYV
Protocol: as §1

Cyno T-cell Binding 0.2 uM (MFI) [1]	Cyno T-cell Binding 2 uM (MFI) [1]	koff [2]	Human T-cell Binding 0.2 uM (MFI) [3]	Human T-cell Binding 2 uM (MFI) [3]	Binder
1420 MFI	21000 MFI	0.00385 s⁻¹	450 MFI	1460 MFI	B1
2270 MFI	27000 MFI	0.00403 s⁻¹	369 MFI	3970 MFI	B2
4980 MFI	39800 MFI	0.000872 s⁻¹	650 MFI	3600 MFI	B3
864 MFI	4210 MFI	0.00235 s⁻¹	390 MFI	1620 MFI	B4
2050 MFI	29000 MFI	0.00108 s⁻¹	601 MFI	4560 MFI	B5
24600 MFI	84300 MFI	0.000494 s⁻¹	6300 MFI	33600 MFI	B6
369 MFI	36400 MFI	0.000705 s⁻¹	261 MFI	8450 MFI	B7
3170 MFI	40800 MFI	0.00121 s⁻¹	632 MFI	7670 MFI	B8
5550 MFI	67000 MFI	0.00221 s⁻¹	896 MFI	11000 MFI	B9
5670 MFI	66700 MFI	0.000635 s⁻¹	1030 MFI	11300 MFI	B10
1240 MFI	24400 MFI	0.00177 s⁻¹	567 MFI	13800 MFI	B11
3130 MFI	37500 MFI	0.00127 s⁻¹	739 MFI	10900 MFI	B12
2880 MFI	36500 MFI	0.00198 s⁻¹	693 MFI	8570 MFI	B13
13900 MFI	75200 MFI	0.00063 s⁻¹	2410 MFI	25000 MFI	B14
918 MFI	6120 MFI	0.00147 s⁻¹	434 MFI	1710 MFI	B15
3130 MFI	37100 MFI	0.00108 s⁻¹	574 MFI	6860 MFI	B16
17100 MFI	61300 MFI	0.000175 s⁻¹	4540 MFI	24900 MFI	B17
19000 MFI	81500 MFI	0.000205 s⁻¹	7130 MFI	43900 MFI	B18
930 MFI	20900 MFI	0.00974 s⁻¹	303 MFI	5270 MFI	B19
477 MFI	5090 MFI	0.00318 s⁻¹	252 MFI	3140 MFI	B20
367 MFI	396 MFI	0.00518 s⁻¹	446 MFI	8300 MFI	B21
442 MFI	2920 MFI	0.00116 s⁻¹	1090 MFI	11200 MFI	B22
533 MFI	3190 MFI	0.00124 s⁻¹	1330 MFI	10000 MFI	B23
